Earlier results on one substance are cited in patent publication US20260263563A1, “Method of Treatment of a Thoracolumbar Deformity in a Human Subject with Achondroplasia” (Ascendis Pharma Growth Disorders A/S, priority 2023, published 2026).

Positions of bridges follow the written chain, without caps; N, C: chain ends. No end group written: not given here.

The conditions of this data set: in vivo; cited from earlier work.

“Vosoritide (PGQEHPNARKYKGANKKGLSKGCFGLKLDRIGSMSGLGC; disulfide 23-39)”: the “reported t½” value is “about 28 minutes”.
